How the values were obtained:
[1] = target: T1, hsRBFA Nt-KH (Homo sapiens, UniProt Q8N0V3 42-201); assay: EMSA; EMSA: 20 mM Tris-HCl pH 8.0, 200 mM NaCl, 37 C 30 min, 200 nM ssRNA or 2 uM dsRNA; FP: same buffer, 40 nM 5'-FAM RNA, temperature not stated; details: protein: recombinant, tags: His6-MBP N-terminal
T1 sequence: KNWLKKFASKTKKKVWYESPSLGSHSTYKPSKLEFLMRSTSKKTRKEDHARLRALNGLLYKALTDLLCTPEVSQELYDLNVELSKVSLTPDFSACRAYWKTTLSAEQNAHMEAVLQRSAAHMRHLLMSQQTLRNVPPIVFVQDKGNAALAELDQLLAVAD

[2] = target: T2, hsRBFA KH-like (Homo sapiens, UniProt Q8N0V3 86-201); assay: as above; details: protein: recombinant, tags: His6-MBP N-terminal
T2 sequence: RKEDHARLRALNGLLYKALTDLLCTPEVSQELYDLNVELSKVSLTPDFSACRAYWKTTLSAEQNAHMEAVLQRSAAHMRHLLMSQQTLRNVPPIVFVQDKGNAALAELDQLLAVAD

[3] = target: T3, hsRBFA Nt (Homo sapiens, UniProt Q8N0V3 42-89); assay: EMSA; complex stays in well; EMSA: 20 mM Tris-HCl pH 8.0, 200 mM NaCl, 37 C 30 min, 200 nM ssRNA or 2 uM dsRNA; FP: same buffer, 40 nM 5'-FAM RNA, temperature not stated; details: protein: recombinant, tags: His6-MBP N-terminal, hairpin
T3 chain: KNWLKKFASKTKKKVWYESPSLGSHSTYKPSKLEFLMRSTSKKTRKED

B1: h44 (structured_RNA)
RNA: GGCGUCACCCUCUUCGGAGACAAGUCGCC
- binding result ([1]; label: 5'-FAM in FP, hairpin): binds
- binding result ([2]; label: 5'-FAM in FP, hairpin): no binding
- binding result ([3]; label: 5'-FAM in FP): binds

B2: AU (structured_RNA)
RNA: AUAAUAGAAGUAUUAU
- binding result ([1]; hairpin): binds

B3: ssRNA-3'end (ssRNA)
RNA: GACGAAC
- binding result ([2]; single strand): no binding

B4: h28 (structured_RNA)
RNA: GGUGGCGGUGCUUCAUUCGUGAAGCGCGUCACC
- binding result ([1]; hairpin): binds
- binding result ([2]; hairpin): no binding
- binding result [3]: binds

B5: GC (structured_RNA)
RNA: CGCCGCGAAGGCGGCG
- binding result ([1]; hairpin): binds

B6: h45 (structured_RNA)
RNA: UAAGUGUACUGGAAAGUGCACUUG
- binding result ([1]; hairpin): binds
- binding result ([2]; hairpin): no binding
- binding result [3]: binds

B7: DNA (dsDNA)
DNA 1: TTGGTCAG
DNA 2: CTGACCAA
- binding result ([1]; blunt): binds

From article PMC9943654, “The recognition mode between hsRBFA and mitoribosome 12S rRNA during mitoribosomal biogenesis”
